Consider three molecules from US8569578B1, “Generating transgenic potatoes with novel resistance to potato cyst nematodes by silencing nematode parasitism genes of CLE -1 and CLE-4s” (The United States of America, as represented by the …, priority 2009, dated 2013).

The test system of data set [1] is Arabidopsis clv3-2 mutant plants. Nature of the data set: complementation of clv3-2 mutant by Gr-CLE genes under CLV3 promoter. It counts as in vivo. Particulars: gene under control of CLV3 promoter in clv3-2. From the text:
Gr-CLE proteins can completely or partially replace CLV3 activity within meristems. For the complementation study, Gr-CLE genes were subcloned into pBU14 under the control of the CLV3 promoter (Brand et al. 2002. Plant Physiol. 129:565-575). To generate the PCLV3:Gr-CLE-1 construct, primer pair of CLE1-spF and CLE1-TGAxbaR was used. To generate PCLV3:Gr-CLE-4-B and PCLV3:Gr-CLE-4-C constructs, primer pair of CLE4B1-spF and 4B1-TGAxbaR was used. Each amplified PCR product was cloned into pBU14 at BamHI and XbaI sites. Arabidopsis clv3-2 mutant plants were transformed with A. tumefaciens GV3101 harboring each of the above constructs.
All transformants were selected on ½×MS medium containing 50 μg/mL of kanamycin (Sigma-Aldrich) (for the pMD1 vector) or 30 μg/mL of glufosinate ammonium (Fisher, Pittsburgh, Pa., U.S.A.) (for the pBU14 vector) and transgenic Arabidopsis plants were then cultivated at 24° C. for 16 h of light and 8 h of dark in a growth room. For measuring the root growth rate, transgenic plants expressing individual Gr-CLE genes or the empty vector were first selected on kanamycin containing medium for five days, then transferred to ½×MS plates and cultured vertically at 24° C. for 16 h of light and 8 h of dark in a growth chamber (Percival, Perry, Iowa, U.S.A.).
Gr-CLE-1, Gr-CLE-4-B, and Gr-CLE-4-C were the most representative Gr-CLE genes identified. To determine if these genes could replace CLV3 activity in the shoot and floral meristems, the full-length sequences of these three genes were cloned under the control of the CLV3 promoter and introduced into Arabidopsis clv3-2 mutant plants. clv mutants have enlarged shoot and floral meristems that lead to shoot fasciation and formation of extra floral organs including an increase in carpel number (Clark et al. 1993, 1995; Kayes and Clark 1998). For example, flowers of a clv3-2 mutant usually have six to seven carpels in the fourth whorl (Clark et al. 1995), whereas wild-type flowers have only two carpels in the fourth whole. Carpel number is a sensitive measurement for meristem size (Clark et al. 1993; Ni and Clark 2006). Multiple independent transgenic lines for each transgene were obtained and analyzed (Table 2).

Another data set deals with potato hairy roots. Nature of the data set: overexpression of Gr-CLE genes in potato hairy roots. It counts as in vivo. Particulars: measured at 4, 6, 8 and 10 days after dissecting; compared with vector control. From the text: To examine root meristems, primary root tips were excised from peptide treated Arabidopsis seedlings or from transgenic potato hairy roots and immediately mounted in water onto a glass slide. Roots were examined under an Olympus BX-50 microscope equipped with Nomarski optics and images were captured using a QImaging Retiga EXi digital CCD camera (QImaging, Surrey, BC, Canada). The root apical meristem (RAM) regions of individual primary roots that covered the distance from the position around the quiescent center to the position where elongated root cells immediately follow cytoplasm-dense meristematic cells were measured microscopically. The collected data were analyzed using the MetaMorph imaging analysis software (Universal Imaging Corporation, Downingtown, Pa., U.S.A.)
A. rhizogenes strain 15834 was transformed with individual transgene constructs of interest and used for the generation of potato hairy roots as described previously (Wang et al. 2007. Mol. Plant Pathol. 8:423-436) with some modifications. Potato stem pieces from tissue cultures were incubated with the transformed A. rhizogenes cell suspension for 10 mins, then transferred onto the callus induction medium containing 1×MS salts (Sigma-Aldrich), 26.7 μM Glycine, 4 μM Nicotinic Acid, 2.4 μM Pyridoxine HCL (Sigma-Aldrich), 1.2 μM Thiamine HCL (Sigma-Aldrich), 0.5 μM Folic Acid, 0.2 μM d-biotin (Sigma-Aldrich), 0.01% Myo-inositol (Acros, Morris Plains, N.J., U.S.A.), 3% sucrose, 0.001% 6-BAP (Sigma-Aldrich), 0.002% NAA (Sigma-Aldrich), and 1% agar and cultivated for four days at 24° C. without light. The infected stem pieces were then cultured on the propagation medium containing 1×MS salts, 1.2 mM NaH2PO4, 0.01% Myo-inositol, 0.1% Thiamine HCl, 3% sucrose, 1% agar, 50 μg/mL of kanamycin, and 238 μg/mL of timentin (GlaxoSmithKline). Timentin was used to inhibit the growth of A. rhizogenes 15834 and kanamycin was added to select for transformed roots. Approximately 12-15 days after root emergence, 1 cm-long root tips were dissected and cultured on vertical plates containing the propagation medium with 119 μg/mL of timentin and the root growth rate was measured at different time points.

Entries after “also recorded” stand apart in the source; their conditions may differ.

B1: Gr-CLE-4-C: G. rostochiensis CLE gene of class Gr-CLE-4 with a single CLE motif, cDNA SEQ ID NO: 5 (nucleic acid, listed as Globodera rostochiensis)
DNA: ATCATAATTTCCAAAATCCCAATAAAAGCTTCCTCAATAAAGTAAATATGGCCACGAACACAATGCTTTGCCTGTTTGTTATAAGCGTTGTTCTCGCTCTCGCATTTGCTACGAATAAAAAGGGTGATGAAGAACCGGAGAACCATTCGACCGGCATTTTTGGAAAGGTCGGACGAGTTGTGACCGTGGCACTTGCGATGTCGTCTCGTCTGGGAGGGGCTGACGCAACCCGAGGAGGTGGAGCTGTATATGGAGGAAACTTGAAATCCAATCAATTGCCAAACAACAATTGGATGGCGCCACCTCCTCCAATGGCAATAAGAAGTGCCAAAGTCTATGATTCGAAACATTCTCCTGCTGAATATCTTAAAAAATTTGCTCAAGACTTTCGCCGAAAAACCGGCATGCACTCCCAGCGGCATCACGAAGAAACAACACTGGAACAGGAGAAGCGTGTAGCGGGAGCTGGTCCCGACCCAATACATCACTGATGCTCTTATTCACAATGCTAAAATATCTGTAGACTATAGATAAATTGCTAGCAACAG
As for B1, in data set [1], the “average number of carpels in flowers and siliques” value is “three to four”; the “rescue of clv3-2 meristem defects” value was “partial rescue”. Also, the “length of primary roots of transgenic potato hairy root lines” value (“length” below) in the data set with potato hairy roots is listed as “short root phenotype”.

B2: Gr-CLE-4-B: G. rostochiensis CLE gene of class Gr-CLE-4, cDNA SEQ ID NO: 4 (nucleic acid, listed as Globodera rostochiensis)
DNA: ATCATAATTTCCAAAATCCCAATAAAAGCTTCCTCAATAAAGTAAATATGGCCACGAACACAATGCTTTGCCTGTTAATTTTGAGCGTTGTTCTCGCTCTCGCATTTGCTACGAATAAAAAGGGTGATGAAGAACCGGAGAACCATTCGACCGGCATTTTTGGAAAGGTCGGACGAGTTGTGACCGTGGCACTTGCGATGTCGTCTCGTCTGGGAGGGGCTGACGCAACCCGAGGAGGTGGAGCTGTATATGGAGGAAACTTGAAATCCAATCTATTGCCAAACAACAATTGGATGGCGCCACCTCCTCCAATGGCAATGAGAAGTGCCAAAGTCTATGATTCGAAACATTCTCCTGCTGAATATCTTAAAAAATTTGCTCAAGACTTTCGCCGAAAAACCGGCATGCACTCCCAGCGGCATCACGAAGAAACAACACTGGAACAGGAGAAGCGTGTAGCGGGAGCTGGTCCCGACCCAATACATCACCAAGATACAACACTGGAACAGGAGAAGCGTGCAGTCCCAGCTGGGCCCGACCCAAAACATCACGAAGAAACAACACTGGAACAGGAGAAGCGTGCAGTCCCAGCTGGGCCCGACCCAAAACATCACGAAGAAACAACACTGGAACAGGAGAAGCGTGCAGTCCCAGCTGGGCCCGACCCAAAACATCACGAAGAAACAACATTTGAACAGGAGAAGCGTGGTGCGCCAGCTGGGCCCGACCCAATACATCACTGATGCTCTTATTCACAATGCTAAAATATCTGTAGACTATAGATAAATTGCTAGCAACAGATAAATGCCTGATCATAATGCTATGGCTAAGGTATCCGTATTCCGAACTAGCAATATAAGCGCATGCGTAGCTCTATCCATTTAATTTCACAATCTAAAGATTAAAATCTGCAGATATCTAGCTGTAGCTGGGCTATCTGCGGATGGAAAAATCGGCATTCTTAATATAATTTTTAATTGCTTAATAAACTTCAATAAAA
As to B2, in data set [1], the “average number of carpels in flowers and siliques” value was “two”; the “rescue of clv3-2 meristem defects” value is on record as “nearly complete rescue”. In addition, the “length” value in the data set on potato hairy roots was “short root phenotype”.

B3: Gr-CLE-1: G. rostochiensis CLE gene, cDNA SEQ ID NO: 1, encoding a 204 amino acid secreted protein with four CLE motifs (nucleic acid, listed as Globodera rostochiensis)
DNA: TATTAATATTGACTAATTTTTTTTTACAAACATATTAATATTGACTAAAAAAATTGATTTTAATAACGACTATAGATATTACTTATGGAGCAACAAAAATCGTCATATTTCCCATCAAATTCAAATAAAACAATCTCTCCAATAAAGTAAATATGGCCAAGAACGCAATGCTTTGCCTGCTGATTTTGAGCGTTGTTCTTGCTCTCGCATTTGCTACAAATGAAAAGGATGATAAAGAAGCGGGGAACCTTTCGACCGGCATTTTTGGAAAGGCCGGAAGATTTGTGACCGTGGCACTTGCGATGTCGTCTCGTCTGGGAGGGGCTGGCGCATCCCAAGGAGGTGGAGCTGTACATGGAGAAAGCTTGAAATCCAATCAATTGCAAAACGCCTATCGGATGGCGCTTCCTCCTCCAATGCAAATAAAAAGTGCCGAAATTGACGGATGGAAACCGTCTCCTGATGAATATCTTAAAAAATTTGCTCAAGAATTTCGCCGAAACACCGGTATGAAACCCCAGTCGTATAATGAAGAGAAGCGTGTAACGCCGGGAGGGCCCGACCCACTACATAACCGTGAAAAAATTCTGGAAGAACAGAAGCGTGTAACGCCGGGAGGGCCTGACCCACTACATAACCGTGAAAAAACTCTGGAAGAACAGAAGCGTGTAACGCCGGGAGGGCCTGACCCACTACATAACCGTGAAAAAACTCTGGAAGAACAGAAGCGTGTAACGCCGGGAGTGCCCGACCGACAACATCGCTGAGGCAATACAAAAAGAGTGAAAGAAAATCGACGGATGTCTTTAGTAATTTCAATTCGTTCCTATCTTTCTCGTTCTGAAGACCAAATATCGATGATGTTAATGTTATGTTCGGAAAACAATTTCTGATATGCGCACACTTGGCA
Regarding B3, in data set [1], the “average number of carpels in flowers and siliques” value is on record as “three to four”; the “rescue of clv3-2 meristem defects” value is “partial rescue”. Besides, the “length” value in the data set with potato hairy roots was “short root phenotype; also recorded: much shorter”.
